The target in test [1] is human MICB005 on cells (human). The test is described as follows: flow cytometry on CHO-MICB005 cells; column HSA_2w (2 weeks in human serum at 37 C).
The target of test [2] is human MICB005 on cells (human). The test is described as follows: flow cytometry on CHO-MICB005 cells; column HSA_1w (1 week in human serum at 37 C). Background: A flow cytometer gives signals particle by particle.
The target in test [3] is human MICB005 on cells (human). Nature of the test: flow cytometry on CHO-MICB005 cells; column Control_2w (control of the 2-week experiment).
The target of test [4] is human MICB005 on cells (human). Nature of the test: flow cytometry on CHO-MICB005 cells; column Control_1w (control of the 1-week experiment).
In test [5] the target is human MICA004 on cells (human). The test is described as follows: flow cytometry, CHO cells, panel headed MICA004.
Test [6] addresses human MICA008 on cells (human). Nature of the test: flow cytometry, HeLa cells (MICA008).
In test [7] the target is shed MICA008 polypeptide (human) (UniProt Q29983). The test is described as follows: capture ELISA (anti-hFc / antibody / shed antigen / biotin-6D4). (In general: An ELISA detects its analyte on a solid surface through an enzyme-linked reagent.)
The target of test [8] is shed MICA002 polypeptide (human) (UniProt Q29983). The test is described as above.
For test [9], the target named is shed MICA004 polypeptide (human) (UniProt Q29983). The description is as above.
In test [10] the target is shed MICA008 polypeptide (human) (UniProt Q29983). The test is described as above. This is another data set of the same source.
In test [11] the target is shed MICA002 polypeptide (human) (UniProt Q29983). Described as above. This is another data set of the same source.
The target of test [12] is shed MICA004 polypeptide (human) (UniProt Q29983). The description is as above. This is another data set of the same source.
For test [13] the target is unchanged. Nature of the test: ELISA: antibody titrated on anti-hFc plate, shed MICA004 captured, detection NKG2D-His + anti-His-HRP.
Test [14] deals with shed MICA008 polypeptide (human) (UniProt Q29983). The test is described as follows: capture ELISA (anti-hFc / antibody / shed antigen / biotin-6D4). This is another data set of the same source.
Test [15] addresses shed MICA002 polypeptide (human) (UniProt Q29983). The test is described as above. The source holds these as a separate data set.
Test [16] deals with shed MICA004 polypeptide (human) (UniProt Q29983). The description is as above. The source holds these as a separate data set.
Test [17] addresses shed MICA002 polypeptide (human) (UniProt Q29983). Nature of the test: ELISA: antibody titrated on anti-hFc plate, shed MICA002 captured, detection NKG2D-His + anti-His-HRP.
Test [18] deals with shed MICB005 polypeptide (human) (UniProt Q29980). The test is described as follows: capture ELISA (anti-hFc / antibody / shed antigen / biotin-6D4).
The target is the same in test [19]. Described as above. This is another data set of the same source.
The target is the same in test [20]. The test is described as above. This is another data set of the same source.
For test [21] the target is unchanged. The test is described as above. The source holds these as a separate data set.
The target of test [22] is shed MICA008 polypeptide (human) (UniProt Q29983). The description is as above. The source holds these as a separate data set.
Test [23] concerns the target shed MICA002 polypeptide (human) (UniProt Q29983). The test is described as above. The source holds these as a separate data set.
The target in test [24] is shed MICA004 polypeptide (human) (UniProt Q29983). The test is described as above. The source holds these as a separate data set.

Usually EC50 stands for the midpoint of the concentration-response curve. As a reminder, the EC50 (read off the curve) is the midpoint of the concentration-response curve. Low values mean higher potency in that assay, high ones lower potency in that assay.

Where a chain is given by its changes, count along the chain named. Like-named read-outs stand apart in the source and are kept apart here.

B1: h36B3GS (antibody, V domains shown)
VH: QVQLVQSGAEVKKPGASVKVSCKASGYAFTKYNFYWVRQAPGQGLEWIGYIDPYFGGTVYNQKFKGKATLTVDKSTSTAYMELRSLRSDDTAVYYCATTDSYSLFTYWGQGTLVTVSS
VL: DIQMTQSPSSLSASVGDRVTITCRASQDISNYLNWYQQTPGKAVKLLIYYTSRLHSGVPSRFSGSGSGTDYTLTISSLQPEDIATYFCLQGNTLPFTFGQGTKLEIK
For the molecule B1, the EC50 was determined as 0.32 µg/mL in test [1], 0.26 µg/mL in test [2], 0.314 µg/mL in test [3] and 0.295 µg/mL in [4].

B2: h36B3GA (antibody, V domains shown)
VH: B1 VH with S101A
VL: B1 VL
B2: the EC50 (read off the curve) in test [5] was 0.5 µg/mL; in test [6] it was 0.4 µg/mL.

B3: 3F9 (antibody, human IgG1, kappa, V domains shown)
VH: QVQLVESGGGLVKPGGSLRLSCAASGFTFSNYAMSWIRQAPGKGLEWVSYISPGGDYIYYADSVKGRFTISRDNAKNSLYLQMNSLRAEDTAVYYCTTDRRHYGSYAMDYWGQGTLVTVSS
VL: DIVMTQSPLSLPVTPGEPASISCRSSKSLLHSNLNTYLYWFLQKPGQSPQILIYRMSNLASGVPDRFSGSGSGTAFTLKISRVEAEDVGVYYCMQHLEYPFTFGPGTKLEIKR
B3: the EC50 in test [7] is 0.134 µg/mL; in test [8], 0.131 µg/mL; in test [9], 0.255 µg/mL; in test [10], 0.105 µg/mL; in [11], 0.107 µg/mL; in [12], 0.129 µg/mL. Also, the EC50 in test [13] stood at 0.071 µg/mL; in [14], 0.22 µg/mL; in test [15], 0.09 µg/mL; in test [16], 0.14 µg/mL; in [17], 0.167 µg/mL. Besides, the maxOD in test [7] turned out to be 1.51; in test [8], 3.96; in [9] it was 2.7. For the same molecule, the Max OD450 in test [10] is 1.15; in test [11] it was 1.82; in test [12] it was 1.83; in test [14], 0.34; in test [15], 3.3; in [16], 2.49.

B4: 1D5 (antibody, human IgG1, kappa, V domains shown)
VH: EIQLQQSGPELVKPGASVKVSCKASGYAFTSQNIYWVKQSHGKSLEWIGYIEPYNVVPMYNPKFKGKATLTVDKSSSSAYIHLNSLTSEDSAIYYCARSGSSNFDYWGQGTTLTVSS
VL: EIILTQSPTTMAASPGEKITITCSASSSISSHYLHWYQQKSGFSPKLLIYRTSNLASGVPARFSGSGSGTSYSLTIGTMEAEDVATYYCQQGSSLPLTFGAGTKVEIKR
As to B4, the EC50 in test [18] was found to be 0.043 µg/mL; in test [7], 0.037 µg/mL; in test [8], 0.025 µg/mL; in test [9] it was 0.035 µg/mL; in [19], 0.026 µg/mL; in test [10] it was 0.024 µg/mL. For the same molecule, the EC50 in test [11] worked out at 0.019 µg/mL; in test [12], 0.023 µg/mL; in test [13] it was 0.056 µg/mL; in [20] it was 0.02 µg/mL; in [14], 0.03 µg/mL; in test [15], 0.02 µg/mL. Also, the EC50 in test [16] came to 0.02 µg/mL; in [17], 0.071 µg/mL; in test [21], 0.035 µg/mL; in test [22], 0.035 µg/mL; in test [23], 0.032 µg/mL; in [24], 0.018 µg/mL. The maxOD in test [18] worked out at 3.83; in [7], 1.67; in test [8] it was 4.5; in [9] it was 2.8. Also, the Max OD450 in test [19] was 1.43; in test [10] it was 1.26; in test [11], 1.93; in test [12], 2.01; in test [20] it was 2.81; in test [14], 0.41. Further, the Max OD450 in [15] was determined as 3.42; in [16], 2.76; in test [21] it was 1.54; in [22], 1.39; in test [23] it was 1.86; in test [24] it was 1.94.

The values are drawn from patent US20250368742A1.
